# Data: PMC3589453, “Structural Characterization of the Self-Association of the Death Domain of p75^NTR” (PLoS ONE, 2013)
# Where a chain is given by its changes, count along the chain named. Names and notes keep the numbering of the source.
# T1: p75CTD monomer (p75CTD C379S/C416S) (rat, UniProt P07174 334-425, C379S | C416S, biotinylated for the BLI assay)
# T1 construct: p75NTR, rat, residues 334-425; Mutant of m3; the tag is that of the parent construct; Biotinylated for BLI, coupled onto a CM-5 chip for SPR; also called double cysteine residue mutant
# T1 sequence (looked up): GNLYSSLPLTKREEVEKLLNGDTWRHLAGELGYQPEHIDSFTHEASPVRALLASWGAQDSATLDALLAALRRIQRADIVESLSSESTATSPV
# T2: p75CTD monomer (p75CTD C379S/C416S) (rat, UniProt P07174 334-425, C379S | C416S, biotinylated for the BLI assay)
# T2 sequence: T1 sequence (looked up)
# B1: p75ICD (rat p75NTR intracellular region, residues 280-425) (domain or fragment, UniProt P07174 280-425, looked up)
# chain: KQNKQGANSRPVNQTPPPEGEKLHSDSGISVDSQSLHDQQTHTQTASGQALKGDGNLYSSLPLTKREEVEKLLNGDTWRHLAGELGYQPEHIDSFTHEACPVRALLASWGAQDSATLDALLAALRRIQRADIVESLCSESTATSPV
# notes: p75NTR, rat, intracellular region, residues 280-425; pET24a vector; source: E. coli BL21, purified (Ni-NTA, size-exclusion chromatography)
# B2: p75CTD C416S (domain or fragment, rat, UniProt P07174 334-425, looked up)
# chain: T1 sequence (looked up) with S46C
# notes: p75NTR, rat, residues 334-425; Mutant of m3, the single chain for its self-association; the isolated dimer is m12; also called C416S mutant of p75CTD
# B3: p75CTD (rat p75NTR residues 334-425) (domain or fragment, UniProt P07174 334-425, looked up)
# chain: T1 sequence (looked up) with S46C, S83C
# notes: p75NTR, rat, death domain and C-terminal tail, residues 334-425; pET24a vector; source: E. coli BL21, purified (Ni-NTA, size-exclusion chromatography)
# B4: p75DD (rat p75NTR death domain, residues 334-418) (domain or fragment, UniProt P07174 334-418, looked up)
# chain: GNLYSSLPLTKREEVEKLLNGDTWRHLAGELGYQPEHIDSFTHEACPVRALLASWGAQDSATLDALLAALRRIQRADIVESLCSE
# notes: p75NTR (neurotrophin receptor p75), rat, death domain, residues 334-418; pET24a vector; Not treated with DTNB in the solution experiments (the DTNB-treated crystal form is m2); also called His6-tagged p75DD; source: E. coli BL21, purified (Ni-NTA, size-exclusion chromatography); also co-expressed in E. coli with GST-tagged NRIF loop region (521-661); not shown: His6, C-terminal, kept
# B5: p75DD modified with DTNB (as crystallised) (domain or fragment, rat, UniProt P07174 334-418, looked up)
# chain: B4 chain
# modifications: Cys379 and Cys416 modified by DTNB (MNB group)
# notes: p75NTR, rat, death domain, residues 334-418 (334-417 traced in the structure); Same construct as m1 after treatment with DTNB at a 5:1 molar ratio; also called DTNB-modified p75DD; source: E. coli BL21, purified (Ni-NTA, size-exclusion chromatography), then modified with DTNB
# B6: full-length rat p75NTR with N-terminal HA tag (receptor, UniProt P07174 30-425, looked up)
# chain: KETCSTGLYTHSGECCKACNLGEGVAQPCGANQTVCEPCLDNVTFSDVVSATEPCKPCTECLGLQSMSAPCVEADDAVCRCAYGYYQDEETGHCEACSVCEVGSGLVFSCQDKQNTVCEECPEGTYSDEANHVDPCLPCTVCEDTERQLRECTPWADAECEEIPGRWIPRSTPPEGSDSTAPSTQEPEVPPEQDLVPSTVADMVTTVMGSSQPVVTRGTTDNLIPVYCSILAAVVVGLVAYIAFKRWNSCKQNKQGANSRPVNQTPPPEGEKLHSDSGISVDSQSLHDQQTHTQTASGQALKGDGNLYSSLPLTKREEVEKLLNGDTWRHLAGELGYQPEHIDSFTHEACPVRALLASWGAQDSATLDALLAALRRIQRADIVESLCSESTATSPV
# notes: p75NTR, rat, full length; pCDNA3 construct, a gift; also called wildtype; full-length p75NTR; source: HEK 293T, transiently transfected, in lysate; not shown: HA, N-terminal, kept
# B7: Human RIP2 CARD domain (residues 438-524) (domain or fragment, UniProt O43353 438-524, looked up)
# chain: QWIQSKREDIVNQMTEACLNQSLDALLSRDLIMKEDYELVSTKPTRTSKVRQLLDTTDIQGEEFAKVIVQKLKDNKQMGLQPYPEIL
# notes: pET24a vector; also called CARD protein; source: E. coli, purified (similar to p75DD)
# Key:
# [1] = molecular target: p75CTD symmetric dimer (dimer of the C416S mutant of p75CTD) (rat) (UniProt P07174); assay: SPR; Biacore 3000, 25 °C; p75CTD monomer and dimer coupled onto a CM-5 chip at equal molarities; NRIF peptide flowed over; 50 mM Hepes-KOH pH 7.5, 100 mM KCl, 5% glycerol, 0.005% Tween-20
# [2] = molecular target: p75DD-Fusion (chimera of the p75NTR death domain and a p75-interacting peptide from NRIF) (rat | not stated) (UniProt P07174); assay: SEC; purified p75NTR constructs and their mutants on a Superdex 75 column; monomer and dimer peaks; some runs with beta-ME or DTNB
# [3] = molecular target: the molecule itself; assay: as above
# [4] = molecular target: T1, p75CTD monomer (p75CTD C379S/C416S); assay: SPR; Biacore 3000, 25 °C; p75CTD monomer and dimer coupled onto a CM-5 chip at equal molarities; NRIF peptide flowed over; 50 mM Hepes-KOH pH 7.5, 100 mM KCl, 5% glycerol, 0.005% Tween-20; settings: both partners purified
# [5] = molecular target: the molecule itself; assay: crystal structure; p75DD modified with DTNB; sitting drop, 4 °C, 0.1 M Bis-Tris propane pH 7.0, 1.2 M sodium citrate; asymmetric dimer in the crystal lattice
# [6] = molecular target: the molecule itself; assay: immunoprecipitation and non-reducing SDS-PAGE immunoblot; HA-p75NTR in transfected HEK 293T cells without ligand; lysate in 40 mM Tris pH 7.6, 150 mM NaCl, 0.5% NP-40, 10% glycerol; anti-HA immunoprecipitates boiled with or without DTT, blotted with anti-HA
# [7] = molecular target: T2, p75CTD monomer (p75CTD C379S/C416S); assay: BLI
# [8] = molecular target: T1, p75CTD monomer (p75CTD C379S/C416S); assay: BLI; Octet (ForteBio); biotinylated p75CTD proteins loaded on Streptavidin High Binding FA biosensors; RIP2 CARD in solution at 5 µM, then 20, 10, 5 and 2 µM for the monomer; 50 mM Hepes-NaOH pH 7.5, 100 mM NaCl, 5% glycerol, 1 mM EDTA; settings: both partners purified
molecule,measurement,setting,value
"NRIF peptide (residues 552-577), chemically synthesized",Kd,[1],10 µM
p75DD-Fusion (chimera of the p75NTR death domain and a p75-interacting peptide from NRIF) (from UniProt P07174 334-418),stoichiometry N,[2],2
B1,stoichiometry N,[3],2
"MESGAGRASDNSLLTHALPVKSHQKG [NRIF peptide (residues 552-577), chemically synthesized]",Kd,[4],~10 µM
B2,stoichiometry N,[3],2
B3,stoichiometry N,[3],2
B4,stoichiometry N,[3],2
B5,binding result,[5],binds
B6,stoichiometry N,[6],2
B7,Kd,[7],0.24 µM
same,fold stronger than the NRIF peptide on p75CTD (KD about 10^-5 M),[8],~100 fold
